Measured values taken from the supplement of paper PMC10065799, “High-throughput profiling of sequence recognition by tyrosine kinases and SH2 domains using bacterial peptide display” (eLife, 2023).

Columns and labels:
EPHB2 = EPHB2 (UniProt P29323); assay: phosphorylation enrichment, bacterial display (enrichment ratio); higher = better substrate or ligand; peptides without Tyr show the background
FGFR1 = FGFR1 (UniProt P11362); assay: as above
Fyn = Fyn (UniProt P06241); assay: as above
Fes = Fes (UniProt P07332); assay: as above
Chain of Fes (P07332 whole entry, looked up): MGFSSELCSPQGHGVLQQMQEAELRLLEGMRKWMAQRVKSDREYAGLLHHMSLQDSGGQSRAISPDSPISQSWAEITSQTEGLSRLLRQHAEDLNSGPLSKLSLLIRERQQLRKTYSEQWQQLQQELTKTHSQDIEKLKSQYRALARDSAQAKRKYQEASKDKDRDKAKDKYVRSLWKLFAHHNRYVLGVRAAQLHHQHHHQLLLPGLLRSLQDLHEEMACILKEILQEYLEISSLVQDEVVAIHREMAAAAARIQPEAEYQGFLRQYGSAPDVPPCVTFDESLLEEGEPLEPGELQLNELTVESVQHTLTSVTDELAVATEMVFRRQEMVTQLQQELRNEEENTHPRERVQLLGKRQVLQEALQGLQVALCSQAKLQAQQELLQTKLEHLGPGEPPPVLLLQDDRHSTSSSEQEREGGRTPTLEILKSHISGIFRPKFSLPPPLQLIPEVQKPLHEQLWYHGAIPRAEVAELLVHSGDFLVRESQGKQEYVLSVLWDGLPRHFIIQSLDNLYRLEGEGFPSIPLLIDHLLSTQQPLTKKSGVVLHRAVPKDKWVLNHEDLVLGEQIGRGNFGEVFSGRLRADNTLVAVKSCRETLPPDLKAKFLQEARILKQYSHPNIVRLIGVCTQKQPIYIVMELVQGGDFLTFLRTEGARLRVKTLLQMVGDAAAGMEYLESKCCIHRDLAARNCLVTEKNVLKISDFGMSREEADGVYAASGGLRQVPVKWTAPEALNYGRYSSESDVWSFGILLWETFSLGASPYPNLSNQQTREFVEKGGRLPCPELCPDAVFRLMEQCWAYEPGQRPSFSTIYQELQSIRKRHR

EPHB1 = EPHB1 (UniProt P54762); assay: as above
Chain of EPHB1 (P54762 whole entry, looked up): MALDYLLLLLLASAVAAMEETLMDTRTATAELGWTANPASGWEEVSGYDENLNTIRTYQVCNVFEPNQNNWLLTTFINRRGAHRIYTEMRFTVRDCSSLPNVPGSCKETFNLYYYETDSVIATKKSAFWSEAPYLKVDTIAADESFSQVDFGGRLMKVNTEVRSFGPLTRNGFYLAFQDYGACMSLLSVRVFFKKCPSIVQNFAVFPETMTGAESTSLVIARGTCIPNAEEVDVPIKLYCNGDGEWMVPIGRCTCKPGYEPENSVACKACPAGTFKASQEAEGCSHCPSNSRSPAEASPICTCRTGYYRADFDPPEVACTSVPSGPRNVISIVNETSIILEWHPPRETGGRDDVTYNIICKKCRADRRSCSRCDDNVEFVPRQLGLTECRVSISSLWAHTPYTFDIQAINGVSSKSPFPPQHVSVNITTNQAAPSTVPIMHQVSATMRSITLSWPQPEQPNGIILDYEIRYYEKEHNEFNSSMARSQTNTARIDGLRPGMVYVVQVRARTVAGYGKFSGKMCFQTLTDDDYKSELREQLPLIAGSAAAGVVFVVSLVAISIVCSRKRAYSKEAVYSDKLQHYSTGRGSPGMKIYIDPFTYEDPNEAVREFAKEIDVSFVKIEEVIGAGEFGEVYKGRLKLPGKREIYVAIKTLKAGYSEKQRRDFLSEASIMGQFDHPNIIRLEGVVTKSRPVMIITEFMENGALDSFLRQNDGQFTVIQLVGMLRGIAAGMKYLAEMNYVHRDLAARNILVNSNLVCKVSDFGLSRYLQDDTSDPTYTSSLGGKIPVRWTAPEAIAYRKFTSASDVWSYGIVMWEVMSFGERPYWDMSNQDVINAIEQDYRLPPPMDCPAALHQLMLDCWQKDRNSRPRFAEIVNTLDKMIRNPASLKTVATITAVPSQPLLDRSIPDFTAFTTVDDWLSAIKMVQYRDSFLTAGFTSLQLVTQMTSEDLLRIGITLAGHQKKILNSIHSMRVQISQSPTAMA

c-Src = assay: as above
AncSZ = assay: as above
Fer (mouse) = assay: as above
Hck = Hck (UniProt P08631); assay: as above
FGFR3 = FGFR3 (UniProt P22607); assay: as above
Chain of FGFR3 (P22607 whole entry, looked up): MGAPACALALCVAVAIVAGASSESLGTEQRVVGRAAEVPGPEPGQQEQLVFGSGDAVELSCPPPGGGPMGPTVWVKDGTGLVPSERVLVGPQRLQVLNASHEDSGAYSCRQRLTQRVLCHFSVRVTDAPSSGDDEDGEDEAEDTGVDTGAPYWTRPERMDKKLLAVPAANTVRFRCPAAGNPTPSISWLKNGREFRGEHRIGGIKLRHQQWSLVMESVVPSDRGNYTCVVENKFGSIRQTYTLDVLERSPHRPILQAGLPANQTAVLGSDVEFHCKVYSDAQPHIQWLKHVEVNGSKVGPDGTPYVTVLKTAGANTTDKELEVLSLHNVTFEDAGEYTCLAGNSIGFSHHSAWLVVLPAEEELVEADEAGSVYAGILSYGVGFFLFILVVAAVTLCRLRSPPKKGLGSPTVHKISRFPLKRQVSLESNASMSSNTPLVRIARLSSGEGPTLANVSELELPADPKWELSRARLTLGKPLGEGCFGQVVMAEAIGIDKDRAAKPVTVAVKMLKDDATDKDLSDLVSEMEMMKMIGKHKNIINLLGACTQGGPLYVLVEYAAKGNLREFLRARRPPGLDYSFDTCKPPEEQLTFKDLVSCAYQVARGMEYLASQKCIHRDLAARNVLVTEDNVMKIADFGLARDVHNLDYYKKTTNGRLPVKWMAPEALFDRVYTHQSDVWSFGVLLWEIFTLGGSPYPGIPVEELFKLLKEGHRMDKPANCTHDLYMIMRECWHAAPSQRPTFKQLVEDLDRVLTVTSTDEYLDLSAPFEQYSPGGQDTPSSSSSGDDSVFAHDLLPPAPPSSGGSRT

MERTK = MERTK (UniProt Q12866); assay: as above
Jak2 = Jak2 (UniProt O60674); assay: as above
c-Abl (mouse) = assay: as above
SHP2-C SH2 = assay: SH2 binding enrichment of the phosphorylated peptide, bacterial display (enrichment ratio); higher = better substrate or ligand; peptides without Tyr show the background
Grb2 SH2 = Grb2 SH2 (UniProt P62993); assay: as above
Chain of Grb2 SH2 (P62993 whole entry, looked up): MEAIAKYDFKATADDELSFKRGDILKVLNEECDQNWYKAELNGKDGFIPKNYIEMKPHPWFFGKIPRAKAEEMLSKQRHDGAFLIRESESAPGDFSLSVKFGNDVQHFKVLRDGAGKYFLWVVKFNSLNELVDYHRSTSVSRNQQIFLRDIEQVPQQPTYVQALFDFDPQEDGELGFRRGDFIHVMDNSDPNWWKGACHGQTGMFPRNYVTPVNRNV

c-Src SH2 = assay: as above
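Wherever SH2 binding enrichment of the phosphorylated peptide, bacterial display is given: peptide library displayed on the E. coli surface as eCPX fusions, selected cells deep-sequenced, score is each peptide's frequency after selection divided by its frequency in the input.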
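Wherever phosphorylation enrichment, bacterial display is given: 11-residue human phosphosite peptides and single-mutation variants displayed on the E. coli surface, counted by deep sequencing, each peptide's frequency after selection divided by its frequency in the unselected input library; frequency after pTyr selection over input frequency; kinase dosed for 20-30% of maximal phosphorylation in three min.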

Chain of FGFR1 (P11362 whole entry, looked up): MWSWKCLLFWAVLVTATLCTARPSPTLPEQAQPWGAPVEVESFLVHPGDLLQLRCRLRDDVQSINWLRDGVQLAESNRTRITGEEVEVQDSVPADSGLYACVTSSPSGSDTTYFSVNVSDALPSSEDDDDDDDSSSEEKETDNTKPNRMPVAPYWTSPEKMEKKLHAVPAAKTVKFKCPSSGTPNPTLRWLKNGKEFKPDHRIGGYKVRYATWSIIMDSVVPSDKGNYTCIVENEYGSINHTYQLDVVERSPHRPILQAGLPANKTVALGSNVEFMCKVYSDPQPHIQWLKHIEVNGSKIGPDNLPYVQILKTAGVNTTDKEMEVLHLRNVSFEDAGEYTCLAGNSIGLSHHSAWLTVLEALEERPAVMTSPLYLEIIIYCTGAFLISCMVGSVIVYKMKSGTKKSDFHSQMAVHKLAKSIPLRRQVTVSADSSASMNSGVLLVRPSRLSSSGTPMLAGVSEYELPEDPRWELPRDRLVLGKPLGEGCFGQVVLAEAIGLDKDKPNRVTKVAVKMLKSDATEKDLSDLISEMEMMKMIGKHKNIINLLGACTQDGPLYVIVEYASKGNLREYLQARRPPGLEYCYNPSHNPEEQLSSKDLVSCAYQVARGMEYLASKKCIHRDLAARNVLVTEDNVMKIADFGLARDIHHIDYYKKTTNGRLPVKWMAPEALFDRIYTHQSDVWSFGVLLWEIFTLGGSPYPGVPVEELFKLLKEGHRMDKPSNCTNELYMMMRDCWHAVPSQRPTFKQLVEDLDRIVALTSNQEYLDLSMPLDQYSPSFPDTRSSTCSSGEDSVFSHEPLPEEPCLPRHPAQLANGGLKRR
Chain of EPHB2 (P29323 whole entry, looked up): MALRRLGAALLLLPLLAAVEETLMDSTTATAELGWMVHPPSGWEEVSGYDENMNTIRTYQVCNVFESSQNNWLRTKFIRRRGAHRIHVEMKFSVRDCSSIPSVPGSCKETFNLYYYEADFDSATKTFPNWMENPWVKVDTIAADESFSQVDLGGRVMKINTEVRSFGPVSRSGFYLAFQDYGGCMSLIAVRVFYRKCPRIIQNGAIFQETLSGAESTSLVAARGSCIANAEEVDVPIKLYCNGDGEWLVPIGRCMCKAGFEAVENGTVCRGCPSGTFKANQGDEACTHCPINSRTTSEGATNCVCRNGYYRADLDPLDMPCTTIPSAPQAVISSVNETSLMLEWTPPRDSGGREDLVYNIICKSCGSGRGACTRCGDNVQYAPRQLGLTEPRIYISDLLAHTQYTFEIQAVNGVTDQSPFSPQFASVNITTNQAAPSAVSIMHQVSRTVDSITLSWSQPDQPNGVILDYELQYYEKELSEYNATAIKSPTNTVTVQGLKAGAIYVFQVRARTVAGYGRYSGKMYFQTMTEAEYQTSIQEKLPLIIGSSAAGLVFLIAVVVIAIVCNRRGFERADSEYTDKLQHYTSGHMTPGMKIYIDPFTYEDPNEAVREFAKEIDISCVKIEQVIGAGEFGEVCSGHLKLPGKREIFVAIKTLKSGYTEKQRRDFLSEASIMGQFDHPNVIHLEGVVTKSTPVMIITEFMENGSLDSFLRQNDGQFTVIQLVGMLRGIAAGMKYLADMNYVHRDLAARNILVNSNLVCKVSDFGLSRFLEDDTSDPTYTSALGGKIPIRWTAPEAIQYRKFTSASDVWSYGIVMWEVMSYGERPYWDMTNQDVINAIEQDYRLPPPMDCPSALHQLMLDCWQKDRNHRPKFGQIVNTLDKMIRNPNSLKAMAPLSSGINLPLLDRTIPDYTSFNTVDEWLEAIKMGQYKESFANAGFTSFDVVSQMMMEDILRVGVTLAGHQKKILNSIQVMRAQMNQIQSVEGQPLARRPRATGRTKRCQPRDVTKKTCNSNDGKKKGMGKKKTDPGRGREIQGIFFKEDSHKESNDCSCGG

Sequence | phosphorylation enrichment (EPHB2) | phosphorylation enrichment (FGFR1) | phosphorylation enrichment (Fyn) | phosphorylation enrichment (Fes) | phosphorylation enrichment (EPHB1) | phosphorylation enrichment (c-Src) | phosphorylation enrichment (AncSZ) | phosphorylation enrichment (Fer (mouse)) | phosphorylation enrichment (Hck) | phosphorylation enrichment (FGFR3) | phosphorylation enrichment (MERTK) | phosphorylation enrichment (Jak2) | phosphorylation enrichment (c-Abl (mouse)) | SH2 binding enrichment (SHP2-C SH2) | SH2 binding enrichment (Grb2 SH2) | SH2 binding enrichment (c-Src SH2)
RSSKTYLKTRS [LPL_Y329_M328T] | 0.561 | 0.499 | 0.593 | 0.967 | 0.609 | 0.856 | 0.739 | 0.708 | 0.706 | 0.583 | 0.985 | 0.596 | 0.853 | 0.875 | 1.23 | 0.758
RTLIRYAKLGN [BEST1_Y131_N133K] | 0.775 | 0.632 | 0.848 | 1.27 | 0.854 | 1.02 | 1.4 | 0.561 | 0.849 | 0.612 | 1.02 | 1.23 | 1.07 | 1.11 | 1.14 | 0.765
RYVTRYIYNRE [HLA-DQB1_Y62] | 0.783 | 0.681 | 0.701 | 1.18 | 0.74 | 1.09 | 1.23 | 0.527 | 0.739 | 0.793 | 0.773 | 1.26 | 0.832 | 0.432 | 0.72 | 0.367
SAEEDYMADAK [KCNT1_Y876] | 0.662 | 0.634 | 0.652 | 1.36 | 0.733 | 0.473 | 1.3 | 0.632 | 0.586 | 0.843 | 0.486 | 1.25 | 0.686 | 0.758 | 0.901 | 0.525
SASSSYSRSRS [SRRM4_Y549_R547S] | 0.487 | 0.378 | 0.462 | 0.482 | 0.275 | 0.432 | 0.555 | 0.386 | 0.412 | 0.46 | 0.447 | 0.451 | 0.408 | 0.638 | 0.967 | 0.393
SDVCMYRKNTF [SYNE2_Y570_I574T_YF] | 0.534 | 0.497 | 0.395 | 0.904 | 0.551 | 0.4 | 0.711 | 0.382 | 0.456 | 0.571 | 0.4 | 0.726 | 0.636 | 0.732 | 0.787 | 0.507
SDVSSYLEGQA [GCG_Y110] | 0.76 | 0.456 | 0.447 | 0.938 | 0.469 | 0.474 | 0.867 | 0.775 | 0.488 | 0.657 | 0.432 | 0.769 | 0.678 | 0.738 | 0.727 | 0.41
SEASFYKSLNL [NGEF_Y289_YF] | 0.522 | 0.395 | 0.403 | 1.27 | 0.589 | 0.505 | 0.98 | 0.57 | 0.488 | 0.692 | 0.471 | 1.1 | 0.852 | 0.535 | 0.642 | 0.401
SFDLDYDSVQP [MYC_Y16_N11S_YF] | 0.911 | 0.674 | 0.833 | 1.31 | 0.644 | 0.924 | 1.78 | 0.748 | 0.688 | 0.749 | 0.586 | 1.3 | 0.811 | 0.633 | 0.749 | 0.441
SFLSYYTSHVQ [NEFL_Y443_P440L] | 1.01 | 1.04 | 0.585 | 1.1 | 1.26 | 0.936 | 1.01 | 0.583 | 0.794 | 1.01 | 2.19 | 2.1 | 0.828 | 3.81 | 1.17 | 2.51
SGDDGYAKDAK [TENM4_Y1530] | 0.623 | 0.501 | 0.564 | 0.741 | 0.454 | 0.409 | 0.836 | 0.494 | 0.584 | 0.562 | 0.386 | 0.456 | 0.456 | 0.577 | 0.733 | 0.445
SGEKPYKCSEC [ZNF543_Y283] | 0.502 | 0.535 | 0.533 | 0.829 | 0.5 | 0.544 | 0.664 | 0.456 | 0.531 | 0.551 | 0.58 | 0.765 | 0.654 | 0.65 | 1.02 | 0.488
SGETKYNPTEA [NBEAL2_Y2748_E2747K] | 0.476 | 0.502 | 0.459 | 0.868 | 0.558 | 0.537 | 0.767 | 0.539 | 0.613 | 0.594 | 0.449 | 0.848 | 0.624 | 0.533 | 0.791 | 0.579
SGGSSYGSGGG [KRT1_Y532] | 0.396 | 0.411 | 0.382 | 0.583 | 0.381 | 0.449 | 0.506 | 0.397 | 0.396 | 0.389 | 0.362 | 0.537 | 0.633 | 0.527 | 0.871 | 0.427
SGPRRYNIAAL [TTR_Y125_T126N] | 0.343 | 0.505 | 0.377 | 0.52 | 0.285 | 0.409 | 0.572 | 0.432 | 0.43 | 0.394 | 0.411 | 0.511 | 0.452 | 0.551 | 0.556 | 0.419
SGPRRYTVAAL [TTR_Y125_I127V] | 0.42 | 0.401 | 0.457 | 0.496 | 0.409 | 0.415 | 0.51 | 0.393 | 0.429 | 0.423 | 0.395 | 0.729 | 0.635 | 0.516 | 0.794 | 0.618
SHGKQYRVPSD [HHIPL2_Y395_R394Q] | 0.371 | 0.344 | 0.34 | 0.544 | 0.35 | 0.353 | 0.54 | 0.354 | 0.4 | 0.427 | 0.347 | 0.46 | 0.512 | 0.475 | 0.686 | 0.403

Sequence | phosphorylation enrichment (EPHB2) | phosphorylation enrichment (FGFR1) | phosphorylation enrichment (Fyn) | phosphorylation enrichment (Fes) | phosphorylation enrichment (EPHB1) | phosphorylation enrichment (c-Src) | phosphorylation enrichment (AncSZ) | phosphorylation enrichment (Fer (mouse)) | phosphorylation enrichment (Hck) | phosphorylation enrichment (FGFR3) | phosphorylation enrichment (MERTK) | phosphorylation enrichment (Jak2) | phosphorylation enrichment (c-Abl (mouse)) | SH2 binding enrichment (SHP2-C SH2) | SH2 binding enrichment (Grb2 SH2) | SH2 binding enrichment (c-Src SH2)
SHGQDYLVGNK [GSTA1_Y147] | 0.456 | 0.385 | 0.451 | 0.74 | 0.402 | 0.417 | 0.585 | 0.449 | 0.412 | 0.419 | 0.363 | 0.606 | 0.62 | 0.564 | 0.58 | 0.432
SHMVNYQPFRK [TEX37_Y25_D24N_YF] | 0.371 | 0.347 | 0.37 | 0.534 | 0.376 | 0.492 | 0.528 | 0.355 | 0.405 | 0.364 | 0.358 | 0.573 | 0.504 | 0.732 | 0.766 | 0.613
SIKDKYVTALC [KCNH2_Y611_Y616C] | 0.371 | 0.376 | 0.393 | 0.695 | 0.387 | 0.386 | 0.64 | 0.467 | 0.362 | 0.81 | 0.346 | 0.653 | 0.51 | 0.801 | 0.918 | 0.555
SIKDKYVTAVF [KCNH2_Y611_L615V_YF] | 0.475 | 0.491 | 0.543 | 0.794 | 0.48 | 0.501 | 0.667 | 0.523 | 0.467 | 0.541 | 0.443 | 0.839 | 0.682 | 0.658 | 0.82 | 0.538
SIKDKYVTVLY [KCNH2_Y611_A614V] | 0.506 | 0.68 | 0.598 | 0.903 | 0.519 | 0.403 | 0.836 | 0.512 | 0.455 | 0.733 | 0.437 | 0.696 | 0.594 | 2.27 | 0.99 | 1.06
SIKGKYVTALF [KCNH2_Y611_D609G_YF] | 0.409 | 0.361 | 0.406 | 0.798 | 0.519 | 0.495 | 0.771 | 0.525 | 0.408 | 0.449 | 0.414 | 0.77 | 0.617 | 0.806 | 0.988 | 0.735
SILAVYSKDNF [PANK2_Y400_YF] | 0.76 | 0.662 | 0.862 | 1.69 | 0.58 | 1.94 | 0.868 | 0.438 | 0.872 | 0.709 | 0.995 | 0.867 | 0.522 | 0.975 | 0.802 | 0.716
SKLTIYDGRPS [MTM1_Y277_A279G] | 0.499 | 0.456 | 0.539 | 0.674 | 0.367 | 0.612 | 0.713 | 0.409 | 1.44 | 0.508 | 0.463 | 0.589 | 0.508 | 0.638 | 0.94 | 0.439
SLAARYYNWVC [FLT4_Y1230_S1235C] | 0.883 | 4.96 | 0.565 | 1.47 | 0.907 | 0.597 | 1.4 | 0.777 | 0.728 | 3.95 | 3.49 | 1.39 | 0.957 | 1.21 | 6.7 | 1.87
SLNAVYPKAGS [OAS3_Y376_R378K] | 0.383 | 0.427 | 0.395 | 0.515 | 0.296 | 0.473 | 0.562 | 0.412 | 0.422 | 0.443 | 0.417 | 0.474 | 0.467 | 0.76 | 0.841 | 0.456
SLNAVYPRAGR [OAS3_Y376_S381R] | 0.414 | 0.415 | 0.471 | 0.692 | 0.354 | 0.525 | 0.763 | 0.384 | 0.405 | 0.445 | 0.409 | 0.655 | 0.488 | 0.63 | 0.851 | 0.466
SMEGLYSSAQD [CLIC5_Y111_T114A] | 1.8 | 0.522 | 2.67 | 1.55 | 1.62 | 3.2 | 1.51 | 4.7 | 3.19 | 0.908 | 1.52 | 1.3 | 1.05 | 0.595 | 0.582 | 0.733
SNNFIYKTLGV [FAM83B_Y639_YF] | 0.485 | 0.484 | 0.506 | 0.734 | 0.45 | 0.478 | 0.637 | 0.421 | 0.572 | 0.555 | 0.394 | 0.639 | 0.631 | 0.45 | 0.785 | 0.405
SPPILYSFYLN [FCRL6_Y239_D244N] | 4.36 | 0.807 | 2.18 | 1.12 | 3.78 | 2.87 | 1.21 | 3.7 | 2.06 | 0.882 | 9.41 | 1.22 | 1.5 | 1.69 | 1.63 | 0.824
SQAPGYSFTAA [CYCS_Y47_G42S_YF] | 0.465 | 0.417 | 0.443 | 0.701 | 0.433 | 0.414 | 0.673 | 0.546 | 0.362 | 0.53 | 0.49 | 0.673 | 0.764 | 0.577 | 0.701 | 0.437
SQINLYQDVML [ZNF806_Y33_A28S] | 5.9 | 1.01 | 0.965 | 2.48 | 13.2 | 0.934 | 1.02 | 13.9 | 1.6 | 1.06 | 1.81 | 0.847 | 0.752 | 0.771 | 0.846 | 0.608
